{"source": "patent US10815297B2", "about": "“Antagonists of IL17C for the treatment of inflammatory disorders” (MorphoSys AG, priority 2011, dated 2020)", "molecules": {"B1": {"name": "MOR12762: anti-mouse IL17C HuCAL antibody; CDRs SEQ ID NO: 171-176, VL 177, VH 178; human/mouse chimeric IgG2a (antibody, V domains shown)", "VH": "EVQLVQSGAEVKKPGESLKISCKGSGYSFNNYWIAWVRQMPGKGLEWMGFIYPSNSATQYSPSFQGQVTISADKSISTAYLQWSSLKASDTAMYYCARDNEYSDSYFDVWGQGTLVTVSS", "VL": "DIVLTQSPATLSLSPGERATLSCRASQIVSSYLAWYQQKPGQAPRLLIYDASSRATGIPARFSGSGSGTDFTLTISSLEPEDFAVYYCQQSEQVPTTFGQGTKVEIKRT", "modifications": "mouse IgG2a constant regions; VH; VL"}}, "assay_type_in_all_cases": "in vivo", "key": {"[1]": {"system": "mouse CIA model (DBA1/J mice)", "test": "Mouse collagen induced arthritis (CIA) model, therapeutic protocol", "settings": "10 mg/kg, 3x week, i.p., day 31 to day 46", "experimental": "(§1) DBA1/J mice (male, 6-7 weeks old, approx 20 gram) were obtained from Centre d'Elevage Regional Janvier (Laval, France). Mice were kept on a 12 hr light/dark cycle (0700-1900). Temperature was maintained at 22° C., and food and water were provided ad libitum.\nOne day before the experiment, CII solution (2 mg/mL) was prepared with 0.05 M acetic acid and stored at 4° C. Just before the immunization, equal volumes of adjuvant […] and CII were mixed by a homogenizer in a pre-cooled glass bottle in an ice water bath. Extra adjuvant and prolonged homogenization may be required if an emulsion is not formed. 0.1 mL of the emulsion was injected intradermally at the base of the tail of each mouse on day 1, a second booster intradermal injection (CII solution at 2 mg/mL in […] 0.1 mLemulsion) was performed on day 21. This immunization method was modified from published methods (Brand et al, 2007, Collagen-induced arthritis. Nature Protocols; vol 2 (5): 1269-1275; Lin et al., 2007, Anti-rheumatic activities of histone deacetylase (HDAC) inhibitors in vivo in collagen-induced arthritis in rodents. Br J Pharmacol. April; 150 (7):829-31).\nThe therapeutic effects of the antibodies were tested in the mouse CIA model. Mice were randomly divided into equal groups and each group contained 10 mice. All mice were immunized on day 1 and boosted on day 21. Therapeutic dosing lasted from day 31 to day 46. The negative control group was treated with vehicle (PBS) and the positive control group with Enbrel (10 mg/kg, 3× week, i.p.). An antibody of interest was tested at 10 mg/kg, i.p. 3 times per week.\nAnti-IL17C antibodies were administered i.p. three times a week at 10 mg/kg. […]\n(§2) Arthritis was scored according to the method of Khachigian 2006 (Collagen antibody-induced arthritis. (2006) Nature Protocols 1, 2512-6), Lin et al 2007 (supra); Nishida et al. 2004 (Histone deacetylase inhibitor suppression of autoantibody-mediated arthritis in mice via regulation of p16INK4a and p21(WAF1/Cip1) expression. Arthritis Rheum. 10: 3365-76); and Brand et al. 2007 (supra). […]"}, "[2]": {"system": "mouse CIA model (DBA1/J mice)", "test": "Mouse collagen induced arthritis (CIA) model, preventative protocol", "settings": "10 mg/kg, 3x week, i.p., day 21 to day 46", "experimental": "as §1\nOne day before the experiment, CII solution (2 mg/mL) was prepared with 0.05 M acetic acid and stored at 4° C. Just before the immunization, equal volumes of adjuvant […] and CII were mixed by a homogenizer in a pre-cooled glass bottle in an ice water bath. Extra adjuvant and prolonged homogenization may be required if an emulsion is not formed. 0.1 mL of the emulsion was injected intradermally at the base of the tail of each mouse on day 1, a second booster intradermal injection (CII solution at 2 mg/mL in […] 0.1 mLemulsion) was performed on day 21. […]\nas §2"}, "[3]": {"system": "BALB/c female mice, LPS-induced acute lung neutrophilia", "test": "Intranasal instillation of LPS, mouse model of acute lung neutrophilia", "settings": "single treatment 5 mg/kg i.p. 24 hours before LPS instillation; BAL 24 hours after LPS", "experimental": "Two independent studies were conducted with one negative mAb and two positive mAbs in the intranasal instillation of Lipopolysaccharide (LPS) mouse model of acute lung neutrophilia, a model which mimics some relevant aspects of COPD (Chronic Obstructive Pulmonary Disease). The effects were measured by Broncho Alveolar Lavage (BAL) inflammatory cell counting.\nSeveral groups of mice were treated with different antibodies and Dexamethasone and compared to the mice subjected to LPS only.\nBALB/c female mice from Harlan (France) were used in the study. Mice weight was around 20 g.\nMice were anesthetized by isoflurane inhalation. During the breathing, LPS was instilled intranasally. After 24 h, mice were anesthetized intra-peritoneally (IP) and Broncho Alveolar Lavage procedure was performed. Mice were anesthetized by injection of anaesthetic solution of 0.1 mL per 10 g of the mouse weight. The anaesthetic solution was composed of 18 ml 0.9% NaCl, 0.5 mL xylazine (5 mg/Kg) and 1.5 mL ketamine (75 mg/Kg).\nThe trachea was exposed through midline incision and canulated (with a mice catheter). BAL was performed twice using 1 mL of sterile PBS buffer. […] The cells were counted using a cell counter (Vet abc, France). […]\nFor all groups, BAL was performed 24 hours after LPS administration and cell counts were measured.\nThe results were analyzed using Student t-test. […]"}}}
{"molecule": "B1", "values": [{"measurement": "inhibition of inflammation / disease progression (clinical score)", "setting": "[1]", "value": "significant inhibition"}, {"measurement": "inhibition of bone degradation / bone erosion (Larsen score)", "setting": "[2]", "value": "significant inhibition"}, {"measurement": "inhibition of inflammation (clinical score)", "setting": "[2]", "value": "significant inhibition"}, {"measurement": "inhibition of the recruitment of inflammatory cells into the BALF", "setting": "[3]", "value": "inhibited significantly"}]}
